Consider three molecules from article PMC13579936, “Walking the tightrope: Balancing opposing cooperativities in dynein assembly” (The Journal of Biological Chemistry, 2026).

T1: TII: Tctex1 homodimer with two IC chains bound (D. melanogaster, UniProt Q94524 1-111; Q24246 84-143)
T1 construct: dynein light chain Tctex1, D. melanogaster; as the chain of m3; cytoplasmic dynein intermediate chain, D. melanogaster, construct ICTL; as the chain of m1; source: formed from the purified proteins m1 and m3 in the ITC samples; copies: 2 + 2
T1 sequence 1: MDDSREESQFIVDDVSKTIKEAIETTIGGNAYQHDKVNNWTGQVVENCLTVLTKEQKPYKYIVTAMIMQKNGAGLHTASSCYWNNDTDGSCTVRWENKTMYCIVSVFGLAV
T1 sequence 2: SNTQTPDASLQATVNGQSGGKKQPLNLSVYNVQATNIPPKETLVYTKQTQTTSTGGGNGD

T2: TI: Tctex1 homodimer with one IC chain bound (half-bound) (D. melanogaster, UniProt Q94524 1-111; Q24246 84-143)
T2 construct: dynein light chain Tctex1, D. melanogaster; as the chain of m3; cytoplasmic dynein intermediate chain, D. melanogaster, construct ICTL; as the chain of m1; source: formed from the purified proteins m1 and m3 in the ITC samples; copies: 2 + 1
T2 sequence 1: T1 sequence 1
T2 sequence 2: T1 sequence 2

B1: D. melanogaster dynein intermediate chain ICTL (domain or fragment, UniProt Q24246 84-143, looked up)
chain: T1 sequence 2
notes: cytoplasmic dynein intermediate chain (IC), D. melanogaster; source: purity verified by SDS-PAGE and size-exclusion chromatography
B2: D. melanogaster dynein light chain LC8 (homodimer) (natural protein)
chain: MSDRKAVIKNADMSEEMQQDAVDCATQALEKYNIEKDIAAYIKKEFDKKYNPTWHCIVGRNFGSYVTHETRHFIYFYLGQVAILLFKSG
notes: dynein light chain LC8, D. melanogaster; homodimer; source: purity verified by SDS-PAGE and size-exclusion chromatography
B3: D. melanogaster dynein light chain Tctex1 (homodimer) (natural protein)
chain: T1 sequence 1
notes: dynein light chain Tctex1, D. melanogaster; homodimer; source: purity verified by SDS-PAGE and size-exclusion chromatography

Test in all cases: ITC; VP-ITC, 25 °C; 50 mM sodium phosphate, 50 mM sodium chloride, 1 mM sodium azide, pH 7.5; 39 isotherms of eight experiment types (IC in cell or in syringe, two- and three-protein titrations, dissociation; 27 from ref. 8, 12 new) fitted globally to a seven-state model by hierarchical Bayesian inference
In general terms: Isothermal titration calorimetry measures the heat released or taken up as one component is titrated into another.

Assay [1] concerns the target B3. As to conditions: both partners purified.
Assay [2] addresses B2. As to conditions: both partners purified.
In assay [3] the target is TILI: one IC chain with a half-bound Tctex1 homodimer and a half-bound LC8 homodimer (D. melanogaster) (UniProt Q94524).
In assay [4] the target is T1, TII: Tctex1 homodimer with two IC …. As to conditions: both partners purified.
In assay [5] the target is T2, TI: Tctex1 homodimer with one IC chain …. As to conditions: both partners purified.
Assay [6] concerns the target T3, LI: LC8 homodimer with one IC chain bound (half-bound) (D. melanogaster, UniProt Q24117 1-89; Q24246 84-143).
T3 construct: dynein light chain LC8, D. melanogaster; as the chain of m2; cytoplasmic dynein intermediate chain, D. melanogaster, construct ICTL; as the chain of m1; source: formed from the purified proteins m1 and m2 in the ITC samples; copies: 2 + 1
As to conditions: both partners purified.

Assay [7] concerns the target T4, LII: LC8 homodimer with two IC chains bound (D. melanogaster, UniProt Q24117 1-89; Q24246 84-143).
T4 construct: dynein light chain LC8, D. melanogaster; as the chain of m2; cytoplasmic dynein intermediate chain, D. melanogaster, construct ICTL; as the chain of m1; source: formed from the purified proteins m1 and m2 in the ITC samples; copies: 2 + 2
As to conditions: both partners purified.

For B1, in assay [1], the “dH, first IC on the Tctex1 dimer (state TI)” value is -6.76 kcal/mol and the “dH, second IC on the Tctex1 dimer (TI to TII)” value was -4.97 kcal/mol. In assay [2], the “dH, first IC on the LC8 dimer (state LI)” value is -14.8 kcal/mol and the “dH, second IC on the LC8 dimer (LI to LII)” value was -15.1 kcal/mol. This molecule returned a dH in assay [3] of -18.1 kcal/mol.

Regarding B2, the dH was -25.8 kcal/mol in assay [4] and -12.7 kcal/mol in assay [5].

Turning to B3, the results for the dH in assay [6] and in assay [7] were -4.7 kcal/mol and -7.72 kcal/mol, respectively.
